According to PMC7809799, “A microtubule‐LUZP1 association around tight junction promotes epithelial cell apical constriction” (The EMBO Journal, 2020):

Experiments:
[1] = molecular target: Flag‐LUZP1 (mouse) (UniProt Q8R4U7); experiment: pull-down; in vitro direct binding assay: Flag‐LUZP1 on anti‐Flag M2 affinity gel beads, GST‐MLC 0–8.0 μM in HBS, RT 60 min; washed in 300 mM NaCl, 50 mM Tris–HCl pH 7.5, 1 mM EDTA, 1 mM DTT; immunoblot densitometry, Michaelis–Menten fit
[2] = molecular target: Taxol‐stabilized microtubules (tubulin, Cytoskeleton Inc. #T240) (UniProt P02550); experiment: co-sedimentation; MT co‐sedimentation: Flag‐LUZP1 (10 μl of 7.7 nM in 20 μl) with 0–6 μM polymerized tubulin, GTP and Taxol, PME buffer/HBS, RT 60 min; 434,513 g, 25°C, 20 min; immunoblot densitometry, Michaelis–Menten fit
[3] = molecular target: HA‐PP1c β/δ (UniProt P62141 1-327); experiment: cell-based or functional assay

With “GST‐tagged wild‐type myosin light chain (from UniProt Q3THE2 1-172) (natural protein)” the Kd [1] was 4040 nM.

For “GST‐tagged di‐dephosphomimetic myosin light chain (T18A, S19A) (natural protein)”, the Kd [1] was 4880 nM.

“GST‐tagged di‐phosphomimetic myosin light chain (T18D, S19D) (natural protein)” was tested, and the Kd [1] was 850 nM.

B1: GFP‐LUZP1 (natural protein, mouse, UniProt Q8R4U7 1-1068, looked up)
chain: MAELTNYKDAASNRHLRFKLQSLSRRLDELEEATKNLQRAEDELLDLQDKVIQAEGSDSSTLAEIEVLRQRVLKIEGKDEEIKRAEDLCHTMKEKLEEEENLTRELKSEIERLQKRMVDLEKLEEALSRSKNECSQLCLSLNEERNLTKKISSELEMLRVKVKELESSEDRLDKTEQSLVSELEKLKSLTLSFVNERKYLNEKEKENEKIIKELTQKLEQNKKMNRDHMRNASTFLERNDLRIEDGISSTLSSKESKRKGSLDYLKQVENETRDKSENEKNRNQEDNKVKDLNQEIEKLKTQIKHFESLEEELKKMRAKNNDLQDNYLTELNRNRSLASQLEEIKLQVRKQKELGNGDIEGEDAFLLGRGRHERTKLKGHGSEASVSKHTSRELSPQHKRERLRNREFALSNEHYSLSSKQASSPVFTNKRAAKASNMGMGTDSGTQETKRTEDRFAPGSSHSEGKRGREQPSVLSRYPPAAQEHTKVWKGAPKPGTESGLKGKVEKTTRTFSDSTHVSVPNDIVGKGDKTSDLSSEAHCGKRGQVPGHASQGTQAVESSCSKAIGALSSSQKASSEGLSKGKKTANGLAADANFSNSKAPILSKYPYSSRSQENILQGFSLPNKEGVDQPVAVVMEDSSQHEALRCRVIKSSGREKPDSDDDLDIESFVTAKLVNTTITPEPEPKPQPNSREKVKSRGGTRTALFENDKNAAIENDSVKPTRPSSNAIEFPDANCAGVKNQRPFSPREALRSRAIIKPVIIDKDVKKIMGGSGTEVVLEKQKSTSKSVTSKVTSSITIYPSDSSGPRAVPSEAPRERHTSTSNIQVGPPELTAISNHVSSPLELSIHKHDITLQLTEAERVGDGSPKNRAEMVVSRSSILIKPSESVEKNSHVPPAETIRWKSHSASSDSRHITVRNAWKSKRDLKCSEDPPTGIGRNMEATNAYTQRPCTDFLELEQPRSQPSEQGARRVGNSGDAPELSPRRTQSSLTASEVLTRRDRMGGAITAASCNHSSSMEEGEDSTFVTSRRIHNPLEHSELPGKQGLPEPEPVWTEERLHPAKPYAEED
In the case of B1, the Kd [2] is reported as 780 nM, the “in vitro MLC phosphorylation assay with 1 μg MTs added (25 ng GST‐MLC, 4 ng GST‐ROCK1 catalytic domain, 1 μg GST‐PP1c β/δ, 0–5 μg GST‐LUZP1): ppMLC/MLC ratio relative to the control” value [3] is reported as 2.87 ratio relative to the control and the “in vitro Merlin phosphorylation assay with 1 μg MTs added (100 ng GST‐Merlin, 2 pg PAK1, 1 μg GST‐PP1c β/δ, 0–5 μg GST‐LUZP1): pMerlin/Merlin ratio relative to the control” value [3] is reported as 8.32 ratio relative to the control.
